Experimental data reported in patent US20060257397A1 (CRUCELL HOLLAND B V, published 2006).

Legend:
CD80 = target: T1, CD80 (UniProt P33681 35-288, limits assumed); assay: flow cytometry, phage antibody on transfected A431 cells
T1 construct: whole, on cells; also called A431 cell line transfected with CD80
T1 sequence (looked up): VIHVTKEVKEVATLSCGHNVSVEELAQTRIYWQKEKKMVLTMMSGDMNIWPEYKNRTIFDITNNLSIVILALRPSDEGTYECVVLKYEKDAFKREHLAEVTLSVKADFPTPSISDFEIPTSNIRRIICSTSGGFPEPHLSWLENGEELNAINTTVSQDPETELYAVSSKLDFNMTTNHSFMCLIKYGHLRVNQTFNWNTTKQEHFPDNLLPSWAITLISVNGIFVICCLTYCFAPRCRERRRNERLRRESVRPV
Description: (§1) In total, three selection rounds were performed and after both the second and third round, phage antibodies were tested for specific binding on a variety of cell-types, i.e., cultured DCs, PBLs, tonsil and synovial fluid cell suspensions, several cell lines including K562, U266, IM9, U937, THP, CEM, Fravel, HL60, Raji, RPMI8226, HepgII, HELA, HT29 and Jurkatt, a C1R cell line transfected with the molecule CD1a, and A431 cell lines transfected with the molecules CD80, CD83, and CD86. For staining of cells, 100 μl of the phage antibodies were blocked by adding 50 μl of PBS containing 4% milk powder for 15 minutes at room temperature. Next, 5×10⁵ cells in 50 μl of PBS containing 1% BSA were added to the blocked phage antibodies and the mixture obtained was incubated on ice for one hour. After that, the obtained mixture was washed three times with 200 μl PBS containing 1% BSA. To detect cell-bound phage antibodies, the cells were incubated with 20 μl of a 1:800 dilution of sheep anti-M13 polyclonal antibody for 20 minutes on ice. Thereafter, the cells were washed with PBS containing 1% BSA and incubated with 20 μl of a 1:700 dilution of PE-conjugated donkey anti-sheep polyclonal antibody for 20 minutes on ice.
(§2) To visualize DCs the cells were washed again with PBS containing 1% BSA, stained with 10 μl 1:10 diluted FITC-conjugated anti-CD1a antibody (BD PharMingen) and suspended in 200 μl of PBS containing 1% BSA. Flow cytometric analyses were performed using a FACScan (Becton Dickinson).
(§3) The twenty scFv phage antibodies derived from the selections described above bound exclusively to the cell line transfected with CD1a (see lower right panel of FIG. 2 for binding of the representative scFv phage antibody called SC02-113 to the CD1a-transfected cell line). […]

CD83 = target: T2, CD83 (UniProt Q01151 20-205, limits assumed); assay: as above
T2 construct: whole, on cells; also called A431 cell line transfected with CD83
T2 sequence (looked up): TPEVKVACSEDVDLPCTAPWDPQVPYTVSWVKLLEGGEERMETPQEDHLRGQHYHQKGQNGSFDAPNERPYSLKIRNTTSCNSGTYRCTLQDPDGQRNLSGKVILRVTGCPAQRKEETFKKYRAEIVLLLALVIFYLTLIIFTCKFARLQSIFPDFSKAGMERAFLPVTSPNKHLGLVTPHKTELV
Description: as §1, §2, §3

CD86 = target: T3, CD86 (UniProt P42081 24-329, limits assumed); assay: as above
T3 construct: whole, on cells; also called A431 cell line transfected with CD86
T3 sequence (looked up): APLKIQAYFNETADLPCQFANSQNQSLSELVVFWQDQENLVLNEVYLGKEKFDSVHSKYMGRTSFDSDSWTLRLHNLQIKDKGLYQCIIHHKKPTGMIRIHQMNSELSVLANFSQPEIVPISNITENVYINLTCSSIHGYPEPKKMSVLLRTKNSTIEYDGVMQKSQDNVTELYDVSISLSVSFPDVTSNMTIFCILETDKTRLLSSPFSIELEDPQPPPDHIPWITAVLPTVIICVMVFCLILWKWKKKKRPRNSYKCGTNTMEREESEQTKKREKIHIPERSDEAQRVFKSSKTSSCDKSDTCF
Description: as §1, §2, §3

human CD1a = target: T4, human CD1a (human, UniProt P06126 17-327); assay: flow cytometry, phage antibody on C1R cells transfected with CD1a
T4 construct: whole, on cells; also called C1R-CD1a; CR1-CD1a
Description: In total, three selection rounds were performed and after both the second and third round, phage antibodies were tested for specific binding on a variety of cell-types, i.e., cultured DCs, PBLs, tonsil and synovial fluid cell suspensions, several cell lines including K562, U266, IM9, U937, THP, CEM, Fravel, HL60, Raji, RPMI8226, HepgII, HELA, HT29 and Jurkatt, a C1R cell line transfected with the molecule CD1a, and A431 cell lines transfected with the molecules CD80, CD83, and CD86. For staining of cells, 100 μl of the phage antibodies were blocked by adding 50 μl of PBS containing 4% milk powder for 15 minutes at room temperature. Next, 5×10⁵ cells in 50 μl of PBS containing 1% BSA were added to the blocked phage antibodies and the mixture obtained was incubated on ice for one hour. After that, the obtained mixture was washed three times with 200 μl PBS containing 1% BSA. To detect cell-bound phage antibodies, the cells were incubated with 20 μl of a 1:800 dilution of sheep anti-M13 polyclonal antibody for 20 minutes on ice. Thereafter, the cells were washed with PBS containing 1% BSA and incubated with 20 μl of a 1:700 dilution of PE-conjugated donkey anti-sheep polyclonal antibody for 20 minutes on ice. […]

T4 sequence (P06126 17-327): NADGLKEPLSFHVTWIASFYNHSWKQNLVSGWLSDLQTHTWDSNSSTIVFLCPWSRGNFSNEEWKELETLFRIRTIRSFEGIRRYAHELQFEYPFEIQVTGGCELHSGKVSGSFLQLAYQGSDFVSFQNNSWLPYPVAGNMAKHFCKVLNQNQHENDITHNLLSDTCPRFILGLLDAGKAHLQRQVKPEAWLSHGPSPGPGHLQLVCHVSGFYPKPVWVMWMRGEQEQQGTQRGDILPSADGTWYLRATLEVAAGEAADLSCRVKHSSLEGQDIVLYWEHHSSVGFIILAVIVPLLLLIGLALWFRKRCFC

B1: scFv phage antibody SC02-115 (scFv)
scFv: QVQLVQSGAEAKKPGASVKVSCKASGYTFTGYYMHWVRQAPGQGLEWMGWISAYNGNTNYAQKLQGRVTMTTDTSTSTAYMELRSLRSDDTAVYYCARSQMPSYFDYWGQGTLVTVSRGGGGSGGGGSGGGGSSELTQDPAVSVALGQTVRITCQGDSLRSYYASWYQQKPGQAPVLVIYGKNNRPSGIPDRFSGSSSGNTASLTITGAQAEDEADYYCNSRDSSGNHVVFGGGTKLTVLG
B1: no binding (CD80); no binding (CD83); no binding (CD86). B1: binds (human CD1a).
